Measurements: patent US20260116966A1 (KEYMED BIOSCIENCES CHENGDU, published 2026)
Changes are numbered by the printed parent chain.

B1: 2F1 × CD3 H4K5 GPRC5D×CD3 κλ bispecific antibody variant (bispecific antibody, human IgG4 S228P, kappa, lambda)
heavy 1: QVQLVQSGAEVKKPGSSVKVSCKASGYSFTGYTMNWVREAPGQGLEWMGLINPYNGGTRYNQKFQGRVTITADESTSTAYMELSSLRSEDTAVYYCARWALRYGMDYWGQGTLVTVSSASTKGPSVFPLAPCSRSTSESTAALGCLVKDYFPEPVTVSWNSGALTSGVHTFPAVLQSSGLYSLSSVVTVPSSSLGTKTYTCNVDHKPSNTKVDKRVESKYGPPCPPCPAPEFEGGPSVFLFPPKPKDTLMISRTPEVTCVVVDVSQEDPEVQFNWYVDGVEVHNAKTKPREEQFNSTYRVVSVLTVLHQDWLNGKEYKCKVSNKGLASSIEKTISKAKGQPREPQVCTLPPSQEEMTKNQVSLSCAVKGFYPSDIAVEWESNGQPENNYKTTPPVLDSDGSFFLVSKLTVDKSRWQEGNVFSCSVMHEALHNHYTQKSLSLSLGK
light 1: DIQMTQSPSSLSASVGDRVTITCQASQNVGTNVAWYQKKPGQAPKALIYSASYLNSGVPSRFSGSGSGTDFTFTISSLQPEDIATYFCQQYNSYLLTFGGGTKVEIKRTVAAPSVFIFPPSDEQLKSGTASVVCLLNNFYPREAKVQWKVDNALQSGNSQESVTEQDSKDSTYSLSSTLTLSKADYEKHKVYACEVTHQGLSSPVTKSFNRGEC
heavy 2: EVQLVESGGGLVQPGGSLRLSCAASGFTFNTYAMNWVRKAPGKGLEWVGRIRSKYNNYATYYADSVKDRFTISRDDSKNSLYLQMNSLKTEDTAVYYCVRHGNFGNSYVSWFAYWGQGTLVTVSSASTKGPSVFPLAPCSRSTSESTAALGCLVKDYFPEPVTVSWNSGALTSGVHTFPAVLQSSGLYSLSSVVTVPSSSLGTKTYTCNVDHKPSNTKVDKRVESKYGPPCPPCPAPEFEGGPSVFLFPPKPKDTLMISRTPEVTCVVVDVSQEDPEVQFNWYVDGVEVHNAKTKPREEQFNSTYRVVSVLTVLHQDWLNGKEYKCKVSNKGLASSIEKTISKAKGQPREPQVYTLPPCQEEMTKNQVSLWCLVKGFYPSDIAVEWESNGQPENNYKTTPPVLDSDGSFFLYSKLTVDKSRWQEGNVFSCSVMHEALHNHYTQKSLSLSLGK
light 2: QAVVTQEPSLTVSPGGTVTLTCRSSTGAVTTSNYANWVQEKPGQAPRGLIGGTNKRAPWTPARFSGSLLGGKAALTITGAQAEDEAEYYCVLWYSNLWVFGGGTKLTVLGQPKAAPSVTLFPPSSEELQANKATLVCLISDFYPGAVTVAWKADSSPVKAGVETTTPSKQSNNKYAASSYLSLTPEQWKSHRSYSCQVTHEGSTVEKTVAPTECS
notes: also called h2F1 H4K5
B2: BCMA × CD3 κλ005 bispecific antibody (bispecific antibody, human IgG4 S228P, kappa, lambda)
heavy 1: QVQLVQSGSELKKPGASVKVSCKASGYIFTNFGMNWVREAPGQGLEWMGWINTYTGEQIYADGFTGRFVFSLDTSVSTAYLQISSLKAEDTAVYFCARGEIYYGYDVGFVYWGQGTLVTVSS
light 1: DIVLTQSPASLAVSPGQRATITCRASKSVSTSGYSYMHWYQKKPGQPPKLLIYLASNLESGVPARFSGSGSGTDFTLTINPVEAEDTANYYCQHSRELPWTFGQGTKVEIKRTVAAPSVFIFPPSDEQLKSGTASVVCLLNNFYPREAKVQWKVDNALQSGNSQESVTEQDSKDSTYSLSSTLTLSKADYEKHKVYACEVTHQGLSSPVTKSFNRGEC
heavy 2: B1 heavy 2
light 2: B1 light 2
notes: they are not tied to the name κλ005 in one sentence; also called BCMA×CD3 bispecific antibody
B3: 2F1 × CD3 H4K7 GPRC5D×CD3 κλ bispecific antibody variant (bispecific antibody, human IgG4 S228P, kappa, lambda)
heavy 1: B1 heavy 1
light 1: B1 light 1 with L54R
heavy 2: B1 heavy 2
light 2: B1 light 2
notes: also called h2F1 H4K7

How the values were obtained:
human GPRC5D [1] = target: T1, human GPRC5D (human, UniProt Q9NZD1 1-345); assay: cell-based or functional assay
[2] = target: T2, CD3 receptor on the surface of Jurkat cells (human, UniProt P07766 23-207); assay: cell-based or functional assay
human GPRC5D [3] = target: T1, human GPRC5D; assay: cell-based or functional assay; remark: listed apart in the source
human GPRC5D [4] = target: T1, human GPRC5D; assay: flow cytometry, MM.1R cells
Protocol: The cell suspension of MM.1R cells in logarithmic growth phase was adjusted to a concentration of 5×10⁵ cells/mL, and 100 μL per well was added to a 96-well U-shaped plate, and centrifuged at 300 g for 5 min. The supernatant was discarded. […] The primary antibody was washed away, and 50 μL/well Alexa Fluro647 labeled goat anti-human IgG FC (1:300 dilution) was added, and incubated on ice for 20 min. After washing once, 50 μL/well of PI was added, incubated for 5 min, and detected by flow cytometry.

[5] = target: T2, CD3 receptor on the surface of Jurkat …; assay: flow cytometry, Jurkat cells
Protocol: The cell concentration was adjusted with 4% calf serum to 5×10⁵ cells/mL. 100 μL per well was added to a 96-well U-shaped plate, and centrifuged at 300 g. The supernatant was removed. […] The secondary antibody 50 μL/well of Alexa Fluro647 labeled goat anti-human IgG Fc (1:300 dilution) was added, and incubated on ice for 20 min. After washing once, 50 μL/well of PI was added, incubated for 5 min, and detected by flow cytometry.

human GPRC5D [6] = target: T1, human GPRC5D; assay: flow cytometry, HEK293-hGPRC5D cells
Protocol: (§1) HEK293-hGPRC5D and HEK293-cyGPRC5D stably transfected cells in logarithmic growth phase were respectively adjusted to a cell density of 5×10⁵ cells/mL. Then, 100 μl/well of the cell suspension was added to a 96-well U-shaped plate, and centrifuged at 300 g for 5 min. The supernatant was discarded. […] The secondary antibody 50 μL/well of Alexa Fluro647 labeled goat anti-human IgG Fe (1:300 dilution) was added, and incubated on ice for 20 min. After washing once, 50 μL/well of PI solution (1:300) was added, incubated for 5 min, and detected by flow cytometry.

human GPRC5D [7] = target: T1, human GPRC5D; assay: flow cytometry, HEK293-hGPRC5D cells; remark: listed apart in the source
Protocol: Cell suspensions of HEK293-hGPRC5D and HEK293-hBCMA stably transfected cells in logarithmic growth phase were adjusted to 5×10⁵ cells/ml. Then, 100 μl/well of the cell suspension was added to a 96-well U-shaped plate, and centrifuged at 300 g for 5 min. The supernatant was discarded. 100 μL per well of serially diluted antibody was added, and incubated at 4° C. for 60 min. The secondary antibody 50 μL/well of Alexa Fluro647 labeled goat anti-human IgG Fc (1:300 dilution) was added, and incubated on ice for 20 min. After washing once, 50 μL/well of PI solution was added, incubated for 5 min, and detected by flow cytometry.

Cynomolgus GPRC5D [8] = target: T3, Cynomolgus GPRC5D (Cynomolgus, UniProt Q9NZD1 1-343 (human entry)); assay: flow cytometry, HEK293-cyGPRC5D cells
T3 construct: Full length, on stably transfected cells (HEK293-cyGPRC5D, CHO-cyGPRC5D); also called cyGPRC5D
T3 chain: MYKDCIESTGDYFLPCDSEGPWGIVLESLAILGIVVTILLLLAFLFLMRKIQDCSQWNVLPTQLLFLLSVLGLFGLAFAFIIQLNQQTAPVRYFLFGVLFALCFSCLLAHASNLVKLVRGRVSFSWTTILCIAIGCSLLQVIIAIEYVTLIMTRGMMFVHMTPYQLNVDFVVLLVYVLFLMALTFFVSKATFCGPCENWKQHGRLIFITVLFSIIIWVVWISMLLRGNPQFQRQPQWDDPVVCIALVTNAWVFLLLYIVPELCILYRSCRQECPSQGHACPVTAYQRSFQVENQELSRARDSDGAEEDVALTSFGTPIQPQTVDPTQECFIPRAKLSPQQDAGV
Protocol: as §1

Cynomolgus GPRC5D [9] = target: T3, Cynomolgus GPRC5D; assay: flow cytometry, HEK293-cyGPRC5D cells against HEK293-hGPRC5D cells
Protocol: as §1

[10] = target: T4, human BCMA on HEK293-hBCMA cells (human, UniProt Q02223 1-184); assay: cell-based or functional assay
T4 sequence (looked up): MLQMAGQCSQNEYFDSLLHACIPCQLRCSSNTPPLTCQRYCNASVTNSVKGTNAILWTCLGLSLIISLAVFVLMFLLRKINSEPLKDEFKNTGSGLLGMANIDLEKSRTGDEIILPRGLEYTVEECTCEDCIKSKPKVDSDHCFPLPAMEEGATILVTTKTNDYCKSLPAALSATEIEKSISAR

[11] = target: T4, human BCMA on HEK293-hBCMA cells; assay: flow cytometry, HEK293-hBCMA cells
[12] = target: T5, biotinylated BCMA recombinant antigen (Homo sapiens (Human), UniProt Q02223 1-54, Biotinylated; site and chemistry not stated. The letters do not carry the biotin.); assay: BLI, biotinylated antigen on SA probe, antibody as analyte
T5 sequence: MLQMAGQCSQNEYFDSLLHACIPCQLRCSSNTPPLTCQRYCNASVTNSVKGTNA

[13] = target: T6, biotinylated CD3 recombinant antigen (CD3εγ) (Homo sapiens (Human), UniProt P07766 23-126; P09693 23-116, Biotinylated; site and chemistry not stated. The letters do not carry the biotin.); assay: as above
T6 construct: also called CD3e antigen; copies: 1 + 1
T6 sequence (P07766 23-126 limits assumed, chain 1 of 2): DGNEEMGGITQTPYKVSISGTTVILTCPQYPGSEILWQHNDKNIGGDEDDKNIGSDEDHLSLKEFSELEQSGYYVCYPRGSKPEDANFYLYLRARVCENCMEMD
T6 sequence (P09693 23-116 limits assumed, chain 2 of 2): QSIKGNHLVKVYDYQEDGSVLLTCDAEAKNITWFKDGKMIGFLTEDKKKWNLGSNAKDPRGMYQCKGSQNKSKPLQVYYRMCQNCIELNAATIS

T2 sequence (P07766 23-207): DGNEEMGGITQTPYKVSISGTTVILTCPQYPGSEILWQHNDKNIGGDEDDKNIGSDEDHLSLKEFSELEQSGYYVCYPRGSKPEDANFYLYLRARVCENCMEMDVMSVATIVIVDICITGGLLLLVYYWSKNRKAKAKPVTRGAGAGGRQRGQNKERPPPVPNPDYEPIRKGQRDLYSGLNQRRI
T1 sequence (Q9NZD1 whole entry): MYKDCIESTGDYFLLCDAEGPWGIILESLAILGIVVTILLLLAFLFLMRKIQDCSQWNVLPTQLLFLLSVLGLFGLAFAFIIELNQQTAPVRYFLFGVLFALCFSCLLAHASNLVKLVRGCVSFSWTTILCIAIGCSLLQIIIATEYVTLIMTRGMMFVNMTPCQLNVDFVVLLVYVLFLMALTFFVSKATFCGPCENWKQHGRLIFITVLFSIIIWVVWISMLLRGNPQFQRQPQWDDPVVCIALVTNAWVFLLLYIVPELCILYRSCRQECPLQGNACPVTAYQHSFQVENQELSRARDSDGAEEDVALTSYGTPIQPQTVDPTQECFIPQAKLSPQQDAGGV

Row | Binder | TDCC, EC50 (nM), MM.1R (human GPRC5D [1]) | Jurkat-NFAT-luc, EC50 [2] | TDCC EC50 (nM), HEK293-hGPRC5D (human GPRC5D [3]) | TDCC EC50 (nM), MM.1S (human GPRC5D [3]) | TDCC EC50 (nM), NCI-H929 (human GPRC5D [3]) | EC50 (human GPRC5D [4]) | EC50 [5] | EC50 (human GPRC5D [6]) | EC50 (human GPRC5D [7]) | EC50 (Cynomolgus GPRC5D [8]) | fold difference of affinity, Cynomolgus GPRC5D against human GPRC5D (Cynomolgus GPRC5D [9]) | TDCC EC50 (nM), HEK293-hBCMA [10] | EC50 [11] | Kd [12] | Kd [13]
1 | B1 | 0.008 nM | 0.662 nM | 0.014 nM | 0.017 nM | 0.036 nM | 15.7 nM | 1.9 nM | 2.8 nM | 8.4 nM | 12.8 nM | < 5 fold | – | – | – | –
2 | B2 | – | – | – | – | – | – | – | – | – | – | – | 0.015 nM | 1.9 nM | 1.1 nM | 45.4 nM
3 | B3 | 0.009 nM | 0.774 nM | – | – | – | 10.2 nM | 7.2 nM | 2.3 nM | – | 6.6 nM | < 5 fold | – | – | – | –
